From US20180017576A1 (WESTFAELISCHE WILHELMS UNIVERSITAET MUENSTER, published 2018) come the findings set out here.

B1: recombinant human S100A8 protein (other)
chain: LTELEKALNSIIDVYHKYSLIKGNFHAVYRDDLKKLLETECPQYIRKKGADVWFKELDINTDGAVNFQEFLILVIKMGVAAHKKSHEESHKE
notes: also called recS100A8; MRP8

Data set [1] has as its target T1, recombinant human S100A9 protein, wild type (human, UniProt P06702 2-114).
T1 construct: also called recS100A9; S100A9 wt
T1 sequence: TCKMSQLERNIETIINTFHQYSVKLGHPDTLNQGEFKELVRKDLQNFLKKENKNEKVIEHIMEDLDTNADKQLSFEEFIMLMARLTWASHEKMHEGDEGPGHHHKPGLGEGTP
Put plainly: MALDI-MS, native solvent conditions, no calcium.

Data set [2] concerns the molecule itself. Briefly: MALDI-MS, native solvent conditions, with calcium. An excerpt: FIG. 2: MALDI mass spectra in the absence and presence of calcium under native solvent conditions. (a) MALDI mass spectra of recS100A8/S100A9 wt complexes in the absence (left) and presence (right) of calcium using 2,6-dihydroxy-acetophenone as matrix. The mass spectra between m/z 20,000 and 100,000 together with an inset between m/z 46,000 and 50,000 are shown. T⁺, singly charged; T²⁺, doubly charged; T³⁺, triply charged tetramer. (b) MALDI mass spectra of recS100A8/S100A9(N69A) mutant complexes in the absence (left) and presence (right) of calcium.
The oligomerization properties of the recS100A8/S100A9 mutant complexes can be determined by MALDI-MS. As shown exemplarily for the N69A mutant in FIG. 2(b), all mutant S100A9 proteins display signals for singly charged heterodimers in the absence of calcium. In contrast to the results obtained with the recS100A8/S100A9 wt proteins no heterotetramers can be observed for the mutant complexes in the presence of calcium (FIG. 2). The base peaks under these conditions exclusively represent S100A8/S100A9(N69A), S100A8/S100A9(E78A) and S100A8/S100A9(N69A+E78A) heterodimers. All MALDI-MS experiments presented here were also confirmed by ESI-MS measurements (see FIG. 3).

Data set [3] concerns the molecule itself. Briefly: glycerol density gradient centrifugation, 100 uM Ca2+. Here is the method: (§1) FIG. 5: Density gradient centrifugation. wt and mutant recS100A8/S100A9 complexes were loaded on a glycerol gradient in the presence of either 1 mM EGTA or 100 μM Ca²⁺. After centrifugation, successive fractions of the gradients were analyzed by SDS-PAGE. […] Addition of calcium induced a marked shift for recS100A8/S100A9 wt to higher glycerol densities, whereas for the mutant complexes recS100A8/S100A9(N69A) and recS100A8/S100A9(E78A) no shift was observed.

The target of data set [4] is B1. Put plainly: ESI-MS, native solvent conditions.
The target in data set [5] is B1. Briefly: glycerol density gradient centrifugation, 1 mM EGTA. How it is done:
as §1

Turning to B1, the binding result in data set [1] is “binds”.

B2: recS100A8/S100A9(N69A+E78A) heterodimer (other)
chain 1: LTELEKALNSIIDVYHKYSLIKGNFHAVYRDDLKKLLETECPQYIRKKGADVWFKELDINTDGAVNFQEFLILVIKMGVAAHKKSHEESHKE
chain 2: TCKMSQLERNIETIINTFHQYSVKLGHPDTLNQGEFKELVRKDLQNFLKKENKNEKVIEHIMEDLDTAADKQLSFEAFIMLMARLTWASHEKMHEGDEGPGHHHKPGLGEGTP
notes: Heterodimer of S100A8 and doubly mutated S100A9
As to B2, the binding result in data set [2] is “no binding”.

B3: recS100A8/S100A9(N69A) heterodimer (other)
chain 1: LTELEKALNSIIDVYHKYSLIKGNFHAVYRDDLKKLLETECPQYIRKKGADVWFKELDINTDGAVNFQEFLILVIKMGVAAHKKSHEESHKE
chain 2: TCKMSQLERNIETIINTFHQYSVKLGHPDTLNQGEFKELVRKDLQNFLKKENKNEKVIEHIMEDLDTAADKQLSFEEFIMLMARLTWASHEKMHEGDEGPGHHHKPGLGEGTP
notes: Heterodimer of S100A8 and mutated S100A9; also called recS100A8/S100A9(N69A) mutant complex
Turning to B3, the binding result in data set [2] is on record as “no binding”.

B4: recS100A8/S100A9 wt heterodimer (other)
chain 1: LTELEKALNSIIDVYHKYSLIKGNFHAVYRDDLKKLLETECPQYIRKKGADVWFKELDINTDGAVNFQEFLILVIKMGVAAHKKSHEESHKE
chain 2: TCKMSQLERNIETIINTFHQYSVKLGHPDTLNQGEFKELVRKDLQNFLKKENKNEKVIEHIMEDLDTNADKQLSFEEFIMLMARLTWASHEKMHEGDEGPGHHHKPGLGEGTP
notes: Heterodimer of one S100A8 and one S100A9 chain; Two such heterodimers associate to the (S100A8/S100A9)2 tetramer in the presence of calcium; also called recS100A8/S100A9 wild-type complex; wt S100A8/S100A9
As for B4, the binding result in data set [3] was “binds”.

B5: recS100A8/S100A9(E78A) heterodimer (other)
chain 1: LTELEKALNSIIDVYHKYSLIKGNFHAVYRDDLKKLLETECPQYIRKKGADVWFKELDINTDGAVNFQEFLILVIKMGVAAHKKSHEESHKE
chain 2: TCKMSQLERNIETIINTFHQYSVKLGHPDTLNQGEFKELVRKDLQNFLKKENKNEKVIEHIMEDLDTNADKQLSFEAFIMLMARLTWASHEKMHEGDEGPGHHHKPGLGEGTP
notes: Heterodimer of S100A8 and mutated S100A9; also called recS100A8/S100A9(E78A) mutant complex
For B5, the binding result in data set [2] is recorded as “no binding”.

B6: recombinant human S100A9(N69A+E78A) (other)
chain: TCKMSQLERNIETIINTFHQYSVKLGHPDTLNQGEFKELVRKDLQNFLKKENKNEKVIEHIMEDLDTAADKQLSFEAFIMLMARLTWASHEKMHEGDEGPGHHHKPGLGEGTP
notes: also called double mutant
B6: the binding result in data set [4] is given as “binds”.

B7: recombinant human S100A9(E78A) (other)
chain: TCKMSQLERNIETIINTFHQYSVKLGHPDTLNQGEFKELVRKDLQNFLKKENKNEKVIEHIMEDLDTNADKQLSFEAFIMLMARLTWASHEKMHEGDEGPGHHHKPGLGEGTP
notes: also called E78A mutant
For the molecule B7, the binding result in data set [5] is reported as “binds”.

B8: recombinant human S100A9(N69A) (other)
chain: TCKMSQLERNIETIINTFHQYSVKLGHPDTLNQGEFKELVRKDLQNFLKKENKNEKVIEHIMEDLDTAADKQLSFEEFIMLMARLTWASHEKMHEGDEGPGHHHKPGLGEGTP
notes: also called N69A mutant
Consider B8, for which the binding result in data set [5] is reported as “binds”.
